{"source": "patent US20140094415A1", "target": "HIS-PDZ1-2 protein (PSD-95 PDZ1-2 tandem) (human) (UniProt P78352)", "experiment": "fluorescence polarization, heterologous competition against AB143 probe", "data": [{"substance": "Tat-NR2B9c (peptide)", "values": [{"measurement": "Ki", "value": 4.6, "unit": "µM"}]}]}
